Results reported in patent US20250145690A1 (US Dept. of Health and Human Services, published 2025).

Molecular target: T1, MERS-CoV spike protein (MERS-CoV, UniProt K9N5Q8 18-1291)
T1 sequence: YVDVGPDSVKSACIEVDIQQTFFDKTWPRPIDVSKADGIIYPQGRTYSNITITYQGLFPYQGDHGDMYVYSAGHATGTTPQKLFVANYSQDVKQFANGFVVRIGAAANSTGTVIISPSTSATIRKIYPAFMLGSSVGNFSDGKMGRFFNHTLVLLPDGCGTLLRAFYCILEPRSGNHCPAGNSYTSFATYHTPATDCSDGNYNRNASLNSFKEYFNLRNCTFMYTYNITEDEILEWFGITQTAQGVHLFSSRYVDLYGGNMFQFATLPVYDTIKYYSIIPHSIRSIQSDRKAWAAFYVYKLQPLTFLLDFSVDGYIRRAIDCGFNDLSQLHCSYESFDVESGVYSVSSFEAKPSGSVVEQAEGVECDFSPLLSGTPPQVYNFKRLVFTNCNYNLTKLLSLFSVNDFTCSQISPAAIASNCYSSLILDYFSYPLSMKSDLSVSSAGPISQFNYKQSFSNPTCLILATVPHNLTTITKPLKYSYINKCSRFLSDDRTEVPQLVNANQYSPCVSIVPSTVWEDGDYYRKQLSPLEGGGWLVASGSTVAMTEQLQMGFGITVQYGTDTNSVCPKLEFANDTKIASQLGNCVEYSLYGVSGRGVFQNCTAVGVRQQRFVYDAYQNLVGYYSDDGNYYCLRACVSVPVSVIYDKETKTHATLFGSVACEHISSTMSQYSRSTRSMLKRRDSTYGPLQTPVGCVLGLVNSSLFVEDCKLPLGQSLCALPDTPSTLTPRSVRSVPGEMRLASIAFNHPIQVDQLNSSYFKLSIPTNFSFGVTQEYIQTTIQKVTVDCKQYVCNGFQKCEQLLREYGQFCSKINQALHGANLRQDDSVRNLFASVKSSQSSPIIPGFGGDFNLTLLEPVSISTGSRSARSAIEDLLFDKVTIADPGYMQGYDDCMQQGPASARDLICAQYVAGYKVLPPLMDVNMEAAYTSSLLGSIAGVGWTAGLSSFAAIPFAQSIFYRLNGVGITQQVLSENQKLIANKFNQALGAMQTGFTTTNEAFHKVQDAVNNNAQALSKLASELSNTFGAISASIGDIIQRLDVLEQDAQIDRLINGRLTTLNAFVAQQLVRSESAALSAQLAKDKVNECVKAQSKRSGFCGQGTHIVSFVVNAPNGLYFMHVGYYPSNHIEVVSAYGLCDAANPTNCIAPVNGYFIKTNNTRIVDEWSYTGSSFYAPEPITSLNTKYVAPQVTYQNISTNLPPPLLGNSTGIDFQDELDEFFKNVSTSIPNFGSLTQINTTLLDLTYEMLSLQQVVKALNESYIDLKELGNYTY
Assay: bead flow cytometry, AUC minus CD4

Binder | binding result
COV77-09 (antibody, V domains shown) VH: EVQLVESGGGLVQPGRSLTLSCSGSGFTFGDYSMSWVRQAPGKGLEWLGFIRSQTYGGTTQYAASVQGRFTILRDDSKSIAYLQMNSLKTEDTAVYYCTRNYGVGDYWGQGTLVTVSS VL: DIVMTQSPASLAVSLGERATIHCRSSLSVLNSSNNKNYLAWYQQKAGQPPKLLMYWASTRESGVPERFSGSGSGTDFTLTISSLEAGDVAVYYCQQYYDKLSLTFGGGTKVEIK | no binding (tested: 200 µg/mL)
COV49-54 (antibody, V domains shown) VH: EVQLVESGGGLVQPGGSLRLSCAASGFIVSSNYMSWVRQAPGKGLEWVSMIYSGGSTVYADSVKGRFTISRDISKNTLYLQMNSLRAEDTAVYYCALETFDYWGQGTLVTVSS VL: DIQMTQSPSSLSASVGDRVTITCRASQGITNHLAWYQQKPGKVPKLLIYAASTLQSGVPSRFSGSGYGTDFTLTISSLQPEDVASYYCQKYDSAPRTFGQGTKVEIK | no binding (tested: 200 µg/mL)
COV57-34 (antibody, V domains shown) VH: QVQLVQSGTEVKKPGSSVKVSCRASGGTLSSYSVSWVRQAPGQGLEWMGRIIPILDKKTYAQKYQGRVTIIADTSTSTVYMELSSLKSDDSAVYYCTTFDYDTSGQRDQHDYWGQGTPVTVSS VL: not shown | no binding (tested: 200 µg/mL)
COV57-13 (antibody, V domains shown) VH: QVQLVQSGTEVKKPGSSVKVSCRASGGTLSSYSVSWVRQAPGQGLEWMGRIIPILDKKTYAQKYQGRVTIIADTSTSTVYMELSSLKSEDSAVYYCTTFDYDTSGQRDQHDYWGQGTLVTVSS VL: not shown | no binding (tested: 200 µg/mL)
COV57-38 (antibody, V domains shown) VH: QVQLVESGGGVVQPGRSLRLSCEASGFNFNNYGMHWVRQAPGKGLEWVAVISYEGSKKYYEDSVRGRFTISRDFSKNTLYLQMNSLRAEDTAVYYCAKANEIFWLGQFKNDALDFWGQGTMVTVSS VL: QSVLTQPPSASGTPGQRVAVSCSGSSSNIGTNFVNWYQHLPRTAPKLLIYRDNQRPSGVPDRFSGSKSGTSASLAISGLQSEDEADYYCAVWDDSLNGQVFGGGTKVTVL | no binding (tested: 200 µg/mL)

Molecular target: T2, HCoV-HKU1 spike protein (Sino Biological 40606-V08B) (HCoV-HKU1, UniProt Q0ZME7 13-1295)
T2 sequence: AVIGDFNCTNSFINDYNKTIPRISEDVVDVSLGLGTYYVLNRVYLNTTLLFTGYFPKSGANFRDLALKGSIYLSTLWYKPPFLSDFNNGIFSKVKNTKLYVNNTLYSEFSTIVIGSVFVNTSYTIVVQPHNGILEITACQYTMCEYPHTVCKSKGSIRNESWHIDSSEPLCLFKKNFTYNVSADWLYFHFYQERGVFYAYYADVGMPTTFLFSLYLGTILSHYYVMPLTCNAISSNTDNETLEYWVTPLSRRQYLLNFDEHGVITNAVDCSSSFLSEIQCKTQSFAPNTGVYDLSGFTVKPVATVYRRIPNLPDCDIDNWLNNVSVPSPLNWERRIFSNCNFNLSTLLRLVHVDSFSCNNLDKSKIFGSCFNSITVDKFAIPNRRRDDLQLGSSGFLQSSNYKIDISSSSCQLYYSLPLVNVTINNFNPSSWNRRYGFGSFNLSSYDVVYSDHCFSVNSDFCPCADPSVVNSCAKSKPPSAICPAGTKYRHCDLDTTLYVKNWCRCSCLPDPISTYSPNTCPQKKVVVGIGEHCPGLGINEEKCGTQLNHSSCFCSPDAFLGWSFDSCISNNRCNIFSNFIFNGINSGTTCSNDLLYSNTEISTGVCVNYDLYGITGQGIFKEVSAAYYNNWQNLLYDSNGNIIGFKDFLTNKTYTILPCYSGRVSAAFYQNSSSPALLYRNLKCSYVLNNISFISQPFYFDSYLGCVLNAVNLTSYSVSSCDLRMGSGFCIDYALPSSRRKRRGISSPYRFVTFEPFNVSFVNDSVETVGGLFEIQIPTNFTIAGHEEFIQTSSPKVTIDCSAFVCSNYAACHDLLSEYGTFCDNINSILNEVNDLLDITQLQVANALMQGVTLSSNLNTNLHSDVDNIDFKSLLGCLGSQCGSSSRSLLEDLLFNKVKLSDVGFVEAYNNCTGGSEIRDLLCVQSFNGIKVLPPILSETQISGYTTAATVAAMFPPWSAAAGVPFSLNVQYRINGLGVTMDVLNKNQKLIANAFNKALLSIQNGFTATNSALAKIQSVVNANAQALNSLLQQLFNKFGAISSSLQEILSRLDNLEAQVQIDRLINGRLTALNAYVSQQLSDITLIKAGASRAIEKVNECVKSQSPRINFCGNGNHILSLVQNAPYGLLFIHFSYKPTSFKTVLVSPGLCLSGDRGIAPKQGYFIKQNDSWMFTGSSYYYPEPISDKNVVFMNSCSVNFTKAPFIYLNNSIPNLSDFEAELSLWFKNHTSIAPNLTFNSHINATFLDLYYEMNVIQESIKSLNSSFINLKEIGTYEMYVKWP
Assay: bead flow cytometry, AUC minus CD4

Binder | binding result
COV44-74 (antibody, V domains shown) VH: QVQLVQSGAEVKKPGASVKVSCKASGYTFSSYYMNWVRQAPGQGLEWVGLISPSAGYTAYAQMFQGRVTMTRDTSTSTVYMELSSLRSEDTAVYYCARVAVAGPNDYWGQGTLVTVSS VL: EIVLTQSPGTLSLSPGERATLSCRASQSISSSYLAWYQQKPGQAPRLVILAASTRATGIPDRFSGSGSGTDFTLTISRLEPEDFALYYCQHYRSSPPLWTFGQGTKVEIR | no binding (tested: 200 µg/mL)
COV44-37 (antibody, V domains shown) VH: QVQLVQSGAEVKKPGASVMLSCRASGYTFINDYMHWVRQAPGEGFEWMGIINPTGDGTKFAQKFQGRVTMTRDSSTTTVHMELRSLTSGDTAVYFCATGGRQSAFDIWGQGTVVIVSS VL: DIVMTQSPLSLPVTPGESASISCRSSQSLLQNNGYNYLDWYLQKPGQSPQLLIYLGSYRASGVPDRFSGSGSGTDFTLKISRVEAEDVGVYYCVQAQQAPPLYTFGQGTKLQIK | no binding (tested: 200 µg/mL)
